Assay results reported in patent US20080020964A1, “Test System for the Discovery of Substances for the Promotion of Neuraxonal Growth” (priority 2003, published 2008).

B1: hnRNP-R: heterogeneous nuclear ribonucleic protein R, epitope-tagged wildtype form overexpressed from an expression plasmid (protein, UniProt O43390 2-633, looked up)
Heterogeneous nuclear …: ANQVNGNAVQLKEEEEPMDTSSVTHTEHYKTLIEAGLPQKVAERLDEIFQTGLVAYVDLDERAIDALREFNEEGALSVLQQFKESDLSHVQNKSAFLCGVMKTYRQREKQGSKVQESTKGPDEAKIKALLERTGYTLDVTTGQRKYGGPPPDSVYSGVQPGIGTEVFVGKIPRDLYEDELVPLFEKAGPIWDLRLMMDPLSGQNRGYAFITFCGKEAAQEAVKLCDSYEIRPGKHLGVCISVANNRLFVGSIPKNKTKENILEEFSKVTEGLVDVILYHQPDDKKKNRGFCFLEYEDHKSAAQARRRLMSGKVKVWGNVVTVEWADPVEEPDPEVMAKVKVLFVRNLATTVTEEILEKSFSEFGKLERVKKLKDYAFVHFEDRGAAVKAMDEMNGKEIEGEEIEIVLAKPPDKKRKERQAARQASRSTAYEDYYYHPPPRMPPPIRGRGRGGGRGGYGYPPDYYGYEDYYDDYYGYDYHDYRGGYEDPYYGYDDGYAVRGRGGGRGGRGAPPPPRGRGAPPPRGRAGYSQRGAPLGPPRGSRGGRGGPAQQQRGRGSRGSRGNRGGNVGGKRKADGYNQPDSKRRQTNNQQNWGSQPIAQQPLQQGGDYSGNYGYNNDNQEFYQDTYGQQWK
modifications: epitope tag
B2: hnRNP-Q: heterogeneous nuclear ribonucleic protein Q, epitope-tagged wildtype form overexpressed from an expression plasmid (protein, UniProt O60506 2-623, looked up)
Heterogeneous nuclear …: ATEHVNGNGTEEPMDTTSAVIHSENFQTLLDAGLPQKVAEKLDEIYVAGLVAHSDLDERAIEALKEFNEDGALAVLQQFKDSDLSHVQNKSAFLCGVMKTYRQREKQGTKVADSSKGPDEAKIKALLERTGYTLDVTTGQRKYGGPPPDSVYSGQQPSVGTEIFVGKIPRDLFEDELVPLFEKAGPIWDLRLMMDPLTGLNRGYAFVTFCTKEAAQEAVKLYNNHEIRSGKHIGVCISVANNRLFVGSIPKSKTKEQILEEFSKVTEGLTDVILYHQPDDKKKNRGFCFLEYEDHKTAAQARRRLMSGKVKVWGNVGTVEWADPIEDPDPEVMAKVKVLFVRNLANTVTEEILEKAFSQFGKLERVKKLKDYAFIHFDERDGAVKAMEEMNGKDLEGENIEIVFAKPPDQKRKERKAQRQAAKNQMYDDYYYYGPPHMPPPTRGRGRGGRGGYGYPPDYYGYEDYYDYYGYDYHNYRGGYEDPYYGYEDFQVGARGRGGRGARGAAPSRGRGAAPPRGRAGYSQRGGPGSARGVRGARGGAQQQRGRGVRGARGGRGGNVGGKRKADGYNQPDSKRRQTNNQNWGSQPIAQQPLQGGDHSGNYGYKSENQEFYQDTFGQQWK
modifications: epitope tag

What was measured:
PC12 cells [1] = experiment: Neurite growth in PC12 cells transiently transfected with Smn or hnRNP-R and -Q; format: cell-based, rat; conditions: transient overexpression, differentiation with 50 ng/ml NGF for three days
Protocol: Rat pheochromocytoma cells (PC12) were cultivated in DMEM (Invitrogen, Carlsbad, Calif., USA)+10% horse serum+5% fetal calf serum+antibiotics. Before the transfection, the cells were plated out in a high density in 24-well culture dishes and transfected with 1 μg plasmid DNA (Lipofectamine 2000; Invitrogen, Carlsbad, Calif., USA). For this purpose, expression plasmids were used, into which wildtype forms marked with epitope tags (HA tag of FLAG tag) or mutated versions of Smn, hnRNP-R or hnRNP-Q have been cloned. On the day after the transfection, the cells were plated out in 35 mm culture dishes on glass plates coated with poly-DL-or nithine in a density of 1,000 cells/cm^2. As a differentiation medium, DMEM+2% horse serum and 1% fetal calf serum+50 ng/ml NGF+antibiotics were used. After three days, the cells were fixed and stained. The PC12 cells were fixed with 4% paraformaldehyde (PFA) in buffered common salt solution (PBS). […] After washing again with TBS-T, the cells were embedded in Mowiol and evaluated at the fluorescence microscope or the confocal microscope as mentioned above.

[2] = test system: 3′ untranslated region of β-actin mRNA; experiment: Binding of radioactively marked β-actin mRNA to immunoprecipitated HA-marked hnRNP-R (filter, PSL); conditions: HA-marked protein from transfected HEK 293 cells, 32P-marked RNA, 30 minutes at room temperature
Protocol: The untranslated 3′ regions of β-actin from the stop codon to the poly-A sequence or the so-called zipcode region (Kislauskis et al., 1994) were amplified by RT-PCR and cloned into a plasmid with the binding site for the T7 RNA polymerase (pTZ19). Optionally, a poly-A tail of 30 nucleotides was added. (Used primers:
actinUTRfwd […], actinUTRpolyAfullrev, ATGAGAATTC-T(30)-[…], actinUTRpolyAziprev, ATGA-GAATTC-T(30)-[…], actinUTRfullrev, […]). The plasmids were linearized by digestion with EcoRI at the 3′ end, and were purified. […]
A cell line from human embryonic kidney cells (HEK 293) was transfected with expression constructs marked by HA epitope for the wildtype forms or mutated versions of Smn or hnRNP-R. After 48 hours, the cells were lysated in lysis buffer (25 mM Tris-HCl pH=8.0, 137 mM NaCl, 2 mM EGTA, 2 mM EDTA, 10% glycerol, 1% Triton X-100, 0.05% β-mercaptoethanol and protease inhibitors; Roche, Bale, Switzerland), and the HA-marked proteins were purifies by immunoprecipitation with anti-HA agarose (HA.11, Covance, Denver, Pa., USA). […] These filters were exposed with phosphoimager plates (BAS-2500, Photo Film Europe GmbH, Duesseldorf, Germany), and the bound radioactivity was measured as photo-stimulating luminescence (PSL) by means of the AIDA software package (Raytest, Straubenhardt, Germany).

PC12 cells [3] = experiment: Neurite growth in Smn or hnRNP-R or -Q overexpressing stable PC12 cell lines; format: cell-based, rat; conditions: differentiated seven days
Protocol: For preparing stable cell lines, PC12 cells were cultivated as described above, and transfected with expression vectors for the wildtype form or mutated Smn, hnRNP-R or hnRNP-Q. Thereafter, the cells were selected in a small cell density with the antibiotic G418 with regard to their neomycin resistance. Individual clones were tested by Western blot analysis for their stable expression of the constructs to be expressed. For measuring the neurite length, the cells were plated out as described above on coated glass plates, differentiated by the addition of differentiation medium and fixed, stained after seven days, and the neurite growth was quantified as described above.

PC12 cell lines = experiment: β-actin content in neurites and growth cones of cultivated PC12 cell lines (immunostaining); format: cell-based, rat; conditions: stable PC12 cell lines, anti-actin / anti-β-actin antibodies
Protocol: The cultivation of PC12 cell lines and the fixation, staining and evaluation was performed as described above. As antibodies, monoclonal anti-Smn antibodies (BD Biosciences, Lexington, Ky., USA, 1:500), rabbit anti-hnRNP-R antibodies (Rossoll et al., 2002; 1:1,000), anti-actin (Roche, Bale, Switzerland, 1:200) and β-actin (Abcam, Cambridge, UK; 1:1,000) were used. Since in neurites preferably β-actin is localized, the results are similar for anti-actin and specifically anti-β-actin.

Molecule	effect on neurite growth (PC12 cells [1])	binding to the 3′ untranslated region of β-actin mRNA [2]	neurite length versus control cell lines (untransfected or empty plasmid) (PC12 cells [3])	β-actin staining in the growth zones of the neurites (PC12 cell lines)
SmnY272C: Smn with a point mutation, no interaction with hnRNP-R, also found in SMA patients	no stimulating effect	–	–	–
B1	–	bind to the 3′ untranslated region of β-actin mRNA	three times longer neurites	strong concentration of β-actin
B2	–	–	three times longer neurites	–
